Measured values from the DeepSol protein solubility set.

Test: soluble on expression in E. coli; label from the status in PepcDB or PDB records

Sequence	soluble on expression in E. coli
SLMVPVEIRWQQGGSKVYVTGSFTKWRKMIGLIPDSDNNGSFHVKLRLLPGTHRFRFIVDNELRVSDFLPTATDQMGNFVNYIEVRQPEKNPTNEKIRSKEADSMRPPTSDRSSIALQIGKDPDDFGDGYTRFHEDLSPRPPLEYTTDIPAVFTDPSVMERYYYTLDRQQSNTDTSWLTPPQLPPQLENVILNKYYATQDQFNENNSGALPIPNHVVLNHLVTSSIKHNTLCVASIVRYKQKYVTQILYTPI	soluble
RERLLSEAKATLQNYVAIAMTAIKPLYDAAAPGDEAARANAIKLLSAVSYGKDGYLFGYDSQVVRIFRSTSPDGLGKSFVDARDANGVYINR	not soluble
SAPAAALKKAAEAAEPATVTEDATDLQNEVDQELLKDMYGKEHVNIVFIGHVDAGKSTLGGNILFLTGMVDKRTMEKIEREAKEAGKESWYLSWALDSTSEEREKGKTVEVGRAYFETEHRRFSLLDAPGHKGYVTNMINGASQADIGVLVISARRGEFEAGFERGGQTREHAVLARTQGINHLVVVINKMDEPSVQWSEERYKECVDKLSMFLRRVAGYNSKTDVKYMPVSAYTGQNVKDRVDSSVCPWYQGPSLLEYLDSMTHLERKVNAPFIMPIASKYKDLGTILEGKIEAGSIKKNSNVLVMPINQTLEVTAIYDEADEEISSSICGDQVRLRVRGDDSDVQTGYVLTSTKNPVHATTRFIAQIAILELPSILTTGYSCVMHIHTAVEEVSFAKLLHKLDKTNRKSKKPPMFATKGMKIIAELETQTPVCMERFEDYQYMGRFTLRDQGTTVAVGKVVKILD	soluble
AAGSINTLAQAEVRSRQISVSSPGSSTDINVKKIASIGDVCESMKQQLLVLVEWAKYIPAFCELPLDDQVALLRAHAGEHLLLGATKRSMMYKDILLLGNNYVIHRNSCEVEISRVANRVLDELVRPFQEIQIDDNEYACLKAIVFFDPDAKGLSDPVKIKNMRFQVQIGLEDYINDRQYDSRGRFGELLLLLPTLQSITWQMIEQIQFVKLFGMVKIDNLLQEMLLGG	soluble
MGSDKIHHHHHHMEPEASPLFIDFAGISAGEKILDVGCGTGSLTFALLKAADLKEITAIDDSPVFVAETIRRSTDPRIKVEQGDACALAFDDGAFDRALALLVLHFVTDAGKAVAEMRRVVRPGGVVAASVWDHLGGMPGMRMMVDTVAALSEAGRQFRERYCFQPMMRPGEMKATFIEQGLLQVSETQLMIRMDYSNFDDYWSPMVAGEGPFGKFLSSLDAPDRARAEAAVREAYQAGQPDGPRSFANVAWACRGIAP	not soluble
GMTNVGRPIETHAITVGQGSDARSIAALVRAPAQDERPTCIWLGGYRSDMTGTKALEMDDLAASLGVGAIRFDYSGHGASGGAFRDGTISRWLEEALAVLDHFKPEKAILVGSSMGGWIALRLIQELKARHDNPTQVSGMVLIAPAPDFTSDLIEPLLGDRERAELAENGYFEEVSEYSPEPNIFTRALMEDGRANRVMAGMIDTGCPVHILQGMADPDVPYQHALKLVEHLPADDVVLTLVRDGDHRLSRPQDIDRMRNAIRAMIEPRP	soluble
MKPKVLLAGGTGYIGKYLSEVIENDAELFTISKYPDNKKTDDVEMTWIQCDIFHYEQVVAAMNQIDIAVFFIDPTKNSAKITQSSARDLTLIAADNFGRAAAINQVKKVIYIPGSRYDNETIERLGAYGTPVETTNLVFKRSLVNVELQVSKYDDVRSTMKVVLPKGWTLKNVVNHFIAWMGYTKGTFVKTEKSHDQFKIYIKNKVRPLAVFKIEETADGIITLILLSGSLVKKYTVNQGKLEFRLIKESAVVYIHLYDYIPRLFWPIYYFIQAPMQKMMIHGFEVDCRIKDFQSRLKSGENMKYTK	not soluble
SPRIAEKMLRKRHGQAAFAAYVEKREQTRAAARAYDQRALQGDLEIIYNFGQDLIDEHAIEVSAEQVTVPGFSQPLVYKKDARFSDMLD	not soluble
MGSDKIHHHHHHMKKHSPIGCISKAGLFSKLPHKMLEKIAPISTHQEYFEKGSFIRQPGDGKNGMMFVDKGSAKIYNLNRDGKETVLGVLNKGDYDGQQNLFQDDSHENFIQALQDTYICSISRADFQRLLKDTPDLTLNLLNNFGEKLVAIETNSVRRNSMNAKDRLMDYLVEQSQKNGATKFTLPLKKKDLASYLGTSPETLSRQLKSLEKEGKIKVNRREITIVKD	not soluble
MGSDKIHHHHHHMKKEADMIHPIANAPCSWGVDDPKNPNLPAWATVLKEAAQAGYRSIELGPWGYLPSDPASLRAALEQHQLSLVAGTIFDDLVSEAHFPTLVALTHQICRNLSQVAAAEPIPGRPFQPPYLVIIDFGNPERARFAGRGALAPRLNDKDWQRMMEHIIALSTLAWQEYGVRAVIHPHAGGSIEFADEIERLANDIPHDVAGLCLDTGHLYYAGMDPLDWLDRYYHRLDYLHFKDVDPQVYQRAIHEGIDFFTACAEGVMCPLGSGAIDYPAIKDFLARRGYQGWITIEQERDPRHAAGSLQAVTESLRYLRDVGF	not soluble
GTGGAAATTYGAACAGGTGAATTTGAAGATATTGCGGGCATTACCGACATCTTTAACTTTTATATTGAACAAACCAATGCACGCTTTGAGGAATTTCCATTTACTCTGGAAAATCGTGAGGAATGGTTCTCTCAGTTTTCTAGAACCGCCAAATATCAAATATATGTGGCTGTAGAAAACGGTGTGTTGCAAGGTTTTGCATGTTCCCAAAAGTACAGAGCAATACCAGCTTTTGATGACACTGTAGAGGTGAGCGTTTATCTGGCACAAGAAGCTAAAGGGAAAGGTTTAGGTTCGAAGCTTTATACTCAGCTGTTTTCATCCATTCGTGCTTATGGCGTCCATCGTATATTGTCGGGTGTTGCATTACCAAATGACGCATCAGTAGCATTACATAAACGGTTTGGTTTCCGAGAAGTCGGCATTTCCAACGAATATGCCAAGAAACATGGGCAGTACATCAGCTCGTTGTGGTTAGAAAAAGCGCTTAACGTAGAGTCCGCTTTATAA	not soluble
MFLQSNEHVGTYYAAVNPELIQPRQALEGDLDCEVLVVGAGFSGLHTALRLVEGGRQVCVIEASRIAWAASGRNGGQALPGWSSDLPPLEADLGYEGARRLWDGMLWAAGEMRELPQRHGFDCDYRVGHLWTAILPRRVGLLYDWQAEANRRWGYEGLRFVAKDELPEWIASERYLAGLYDPHAAHLNPLKLAFGLAAAIERAGGRIHERTRALNYREEGDGYRVRTEHGEIRCAALVLACNAYIDGLDSELSQRMLPVGTYQVATEPLGEERAKSLLPRNCCVTDNQFVLDYFRLTPDHRLLFGGGCTYLGGMPSDIRAATRPYLERVFPQLRGVALEYAWGGHIDCSMRRTPDIGRQGNRYWLQGYSGHGVLPSLAAARAVSDALLGDDETLALYQRLRNPKFPGGQRFAAPLEALGKAYYRLRDLFLEHHHHHH	not soluble
MHHHHHHSSGLVPRGSGMKETAAAKFERQHMDSPDLGTDDDDKAMADIGSEFMSTYHERPLGPASAAEWFRQRSYDYGQFPPEDLARRKRELGLTVSAVLPSRNVADTVGGIIDEIHALNERAPLIDQILVVDADSEDGTAGVAASHGAEVYSENELMSGYGDAHGKGDAMWRALSVTRGDLVLYIDADTRDFRPQLAYGVLGPVLEVPGVRFVKAAYRRPFRKGESIEEDGGGRVTELTAKPLFNLFYPELAGFVQPLAGEFVADRELFCSIPFLTGYAVETGIMIDVLKKVGLGAMAQVDLGERQNRHQHLRDLSRMSYAVVRAVARRLRQEGRLQQLREPGLPESFFQLSDYLHAVATPEGLKLQEYVEELVERPPINEVLRVR	soluble
MKEVEKNEIKRLSDRLDAIRHQQAGLSLVESADKYAELEKEKETLEAEIIRLREVHSQKLSKEAQKLMNLPFRRAITKKEQADMGKLKKSVRGLIVVHPMTALGREMGLKEMTGFAKSEF	not soluble
MAAEKTLRTCEKGHEYYKSSDCPTCPTCEKERTPQEGFLSLLSAPARRALEHHGIHTVEELSKYSEKEILKLHGMGPASLPKLRKALEESGLSFK	not soluble
MGAQSHSLEITSSVSAEKIFSGIVLDVDTVIPKAATGAYKSVEVKGDGGAGTVRIITLPEGSPITTMTVRTDAVNKEALSYDSTVIDGDILLGFIESIETHMVVVPTADGGSITKTTAIFHTKGDAVVPEENIKFADAQNTALFKAIEAYLIAN	soluble
MERNYEESALFEHQFWLKVLTDHSQFLLDALAPKEKEDIKKATYFVETFTNLLNKVRNVNLIAFSKEAERAAKEIRTFKLSIIQKQLEGKITIHFTPTFINHMVNEVEEYITVLEFLNKGEVPPVFHELHYHLVWLTDAAGHAGSISGGLDLVEKRLKEKSEEFTKHFEQFYLKAVEMTGYLRTELHHFPALKKFTKDVSLELKLFSHFLHEVEELELSNEILSALSARMADHMAREECYYLLKLAQSSGLEMPKCNPL	not soluble
MASIKKVYRGMKNGAETINDDLEAINSELTSGGNVVHKTGDETIAGKKTFTGNVEVNGSLTLPTKSWSGELGGGIILSLRKKGTTVEYSIGGEISSSILANSNLVNRSVPNEFCPRNRCSLVGHMVGGWNAFHIDIPSSGVCQWFGPTASSGTPRGTGTYPIDHHHHHH	soluble
GMDYNQTVLSHLQKFWKHHDIKGFTWTLGRIVEELPDFQVFQVIPNHEDEPWVYVSSGIGQFLGQEFFIISPFETPEHIETLAMLASASMHYPDQFQLGKTVNIGRPWVEQSSFRHFLISLPYPYGQELEYMDNVRFFWLLPITQTERLFLNTHSVEELETKFDEAGIDYLDINRASTVWQAG	soluble
MAEGGGGVGVVYVLENEAYLSKEGGTLKVSRRAGREVLLQKPLIAVEEIVILGNAVVTPALLKHCAQEGVGIHYLSPTGTYYAGLTRTPSKNAPARVAQFKAYLEPTWKLALAQRFVLGKIRNGLVFLRRNGAEGWERLKEALLEAERAQDEEALRGAEGRAADLYFRAFAELLPEEFAFGERSRRPPRDPANSLLSLAYTLLAKECESALLVAGLDPYVGYLHEVRYGRPSLALDLMEEFRSVLADSVVLSLLNNRRVTLEDFDDSEGFPRLRKEAWPKFLRAWEGRLNERIQHPLLGKRLAYREILLAQARILVKHLLGELPRYEPFAVR	soluble
HKQLNFVDLYYHPVLADMAALLSQKNVFKAIYTFVPRTDDMGDKPALFVIHSGNTGSDVYRPLFTGIKRPSFPIYVIEPHNLLNPEDQIYGIENLAKYYLQMINKFLPESSKREINLMGWSYGGVVASEMCYQLEHETSLLHVNQLTVLDSSFYLSSEDLQRVRKREANGFYAKYFTETHIFEGMDKKNVTTERLIANNHQVCEDLFNYHSKQVNVATTFVRSMVEENPLTDEQIKLLFKHVTIKNVYDGHDYLFVHESSRSLIQDVLGLAA	not soluble
MGSDKIHHHHHHMINFSQIQVFITIVESGGFIAAGEKMHRSQPAITNAIKKLESSLGFELFDRKVYRPQLTAKGKAFYQKAREVVAQFMQLENSAETLRSGVETQFSIDLDIALPLPGYAPLIQSFIRQYPETCFSLSNNTFVRCLERLERRECHLCIAASHIRSPQIEYLRMPSIRMIPVASRDYYDQHKERINNPKLGIYCMQIMIAGTQQELYQLKIEPLSHSMPKWLVGDMYIRKQLILSGMGIGRLPDHLVEKELAEGSLVQLNTRDYVAVTMDIYAMRLNNQEHGMVSNYAWQSLKSYAEDTVSPDLK	not soluble
